# Paper PMC4898720, “NrdR Transcription Regulation: Global Proteome Analysis and Its Role in Escherichia coli Viability and Virulence” (PLoS ONE, 2016)
# B1: E. coli NrdR (natural protein, UniProt P0A8D0 1-149, looked up)
# chain: MHCPFCFAVDTKVIDSRLVGEGSSVRRRRQCLVCNERFTTFEVAELVMPRVVKSNDVREPFNEEKLRSGMLRALEKRPVSSDDVEMAINHIKSQLRATGEREVPSKMIGNLVMEQLKKLDKVAYIRFASVYRSFEDIKEFGEEIARLED
# notes: Transcriptional repressor NrdR of E. coli BW25113, full length ORF cloned between NdeI and XhoI of pET21b; also called EcNrdR; as prepared NrdR; source: E. coli BL21 (DE3), purified (HisTrap Ni column, Superdex 200 gel filtration)
# Biological target: the molecule itself
# Experiment: SDS-PAGE of gel filtration fractions with peptide mass fingerprinting; SDS-PAGE of Superdex 200 fractions of un-refolded and refolded NrdR; ~40 kDa band identified by peptide mass fingerprinting; samples boiled 10 min with 5 mM DTT
protein,measurement,value
B1,stoichiometry N,2
